In US20230243836A1:

Key:
[1] = biological target: VISTA (V-Domain Ig Suppressor of T Cell Activation) expressed on human cells (human) (UniProt Q9H7M9); assay: cell-based or functional assay
[2] = biological target: T1, P-selectin glycoprotein ligand 1 (PSGL-1) expressed on human cells (human) (UniProt Q14242); assay: CAPTIREC (TRICEPS) ligand-receptor capture on naive human T cells, LC-MS/MS; enrichment against the anti-CD28 antibody control
T1 sequence: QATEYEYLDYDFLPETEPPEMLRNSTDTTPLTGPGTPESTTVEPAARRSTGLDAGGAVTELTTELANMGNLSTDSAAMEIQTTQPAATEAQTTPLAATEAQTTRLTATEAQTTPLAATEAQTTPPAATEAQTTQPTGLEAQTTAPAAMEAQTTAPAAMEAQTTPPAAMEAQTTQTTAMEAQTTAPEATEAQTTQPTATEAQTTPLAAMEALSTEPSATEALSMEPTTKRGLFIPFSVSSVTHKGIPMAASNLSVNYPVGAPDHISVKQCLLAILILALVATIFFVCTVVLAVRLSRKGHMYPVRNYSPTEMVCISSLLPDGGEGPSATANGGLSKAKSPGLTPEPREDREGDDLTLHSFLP

Sequence of VISTA-Fc fusion protein (chain): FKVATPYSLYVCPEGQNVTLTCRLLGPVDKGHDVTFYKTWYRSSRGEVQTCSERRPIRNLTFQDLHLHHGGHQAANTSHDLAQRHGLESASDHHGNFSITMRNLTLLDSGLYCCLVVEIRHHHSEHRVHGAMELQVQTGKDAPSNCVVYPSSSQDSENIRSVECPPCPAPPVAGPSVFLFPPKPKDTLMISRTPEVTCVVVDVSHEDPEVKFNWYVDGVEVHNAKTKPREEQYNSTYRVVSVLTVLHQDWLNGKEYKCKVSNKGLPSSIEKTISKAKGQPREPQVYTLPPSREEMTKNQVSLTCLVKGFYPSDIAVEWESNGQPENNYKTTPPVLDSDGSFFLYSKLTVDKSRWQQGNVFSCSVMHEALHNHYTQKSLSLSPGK
Sequence of VISTA (V-Domain Ig Suppressor of T Cell Activation) expressed on human cells (human) (Q9H7M9 33-311): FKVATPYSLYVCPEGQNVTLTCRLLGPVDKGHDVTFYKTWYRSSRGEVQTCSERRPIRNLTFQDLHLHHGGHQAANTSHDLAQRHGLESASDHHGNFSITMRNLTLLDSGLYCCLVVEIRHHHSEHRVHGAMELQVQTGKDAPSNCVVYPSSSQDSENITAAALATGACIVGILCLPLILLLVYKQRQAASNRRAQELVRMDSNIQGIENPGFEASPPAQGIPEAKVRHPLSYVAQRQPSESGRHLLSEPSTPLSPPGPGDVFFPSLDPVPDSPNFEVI

| Substance | fold decrease in IL-2 release from CD4+ T cells (72 h) [1] | Log2 FC (log2 fold change) [2] |
| --- | --- | --- |
| PSGL-1-Fc fusion protein (Example VIII) (from UniProt Q14242 18-320) | 2 fold | – |
| VISTA-Fc fusion protein | – | 2.33 |
